This passage reports Km results from publication PMC12111007, “Potential of Hyperthermophilic L-Asparaginase from Thermococcus sibiricus to Mitigate Dietary Acrylamide Assessed Using a Simplified Food System” (Foods, 2025).

Substrate in the series: NC(=O)C[C@H](N)C(=O)O
As to the kind of experiment: direct Nesslerization (ammonia release). In kind it is biochemical, Thermococcus sibiricus. As to conditions: 90 °C, substrate not named beside the constant, taken as L-asparagine, pH not stated for the kinetics.

B1: TsAI (hyperthermophilic L-asparaginase from Thermococcus sibiricus) (Thermococcus sibiricus MM 739) (protein)
chain: MKKLLIIGTGGTIASAKTEQGYKSVLKIDEILKLAKIKLENGYKIDSTNIMNIDSTLIHPEDWEIIAKEVFKALDDYDGIIITHGTDTLAYTASMLSFMIKNPNKPIVLTGSMLPITENGSDAPRNIRTAIKFAMEDVAGVFVAFMDKIMLGCRTSKVRTLGLNAFMSINYPDVAYVKGEKILYNIPKEKFQPNGSPELDTKYEPRVVVLRVTPGLGGEIIDAVLDAGYKGIVLEGYGAGGLPYRKSNLLSKIKEITPKIPVIMTTQALYDGVDMRKYEVGRKALETGIIPAKDMTKEATITKLMWALGHTKDVEKIREIMHTNYVNEIKS
A word on the Km: it is the substrate concentration at which the rate is half of its maximum. On to B1, for which the Km is 3.8 mM.
